Measurements: the supplement of paper PMC7125110
± gives the standard error. This sample holds only a part of the variants without activity.

B1: glmS ribozyme (parent)
chain: AUAAAAGCGCCAGAACUACAGAAAUGUAGUUGACGAGGAGGAGGUUUAUCGAAUUUUCGGCGGAUGCCUCCAAA

What was measured:
Conditions in all cases: with glucosamine-6-phosphate
glucosamine-6-phosphate [1] = variants of: B1; test: self-cleavage kobs at 640 uM GlcN6P; higher = faster cleavage; RNA array
Method in brief: (§1)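 kcat and KM were obtained from weighted Michaelis–Menten fits across concentrations of kobs values. Those came from one- or two-exponential decay fits to per-tile medians normalised to baseline and to non-cleaving reference variants. The variants were barcoded ribozymes transcribed in situ by E. coli RNA polymerase on sequenced MiSeq chips and tracked through a hybridised Cy3 probe at 37 °C, with 40 μM to 10 mM glucosamine-6-phosphate in HEPES/KCl/Mg(OAc)2 buffer flowed in.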

glucosamine-6-phosphate [2] = variants of: B1; test: self-cleavage kobs at 2500 uM GlcN6P; higher = faster cleavage; RNA array
Method in brief: as §1

glucosamine-6-phosphate [3] = variants of: B1; test: self-cleavage kobs at 10000 uM GlcN6P; higher = faster cleavage; RNA array
Method in brief: as §1

| Variant | self-cleavage kobs at 640 uM GlcN6P (glucosamine-6-phosphate [1]) [s⁻¹] | self-cleavage kobs at 2500 uM GlcN6P (glucosamine-6-phosphate [2]) [s⁻¹] | self-cleavage kobs at 10000 uM GlcN6P (glucosamine-6-phosphate [3]) [s⁻¹] |
| --- | --- | --- | --- |
| C11A C16U A42U | < 1e-05 | – | – |
| G41U A52C U65A | < 1e-05 | – | – |
| A14G G66U C67G | 0.000361 ± 7.9e-05 | 0.00105 ± 0.00021 | – |
| G29U A39C G66A | 0.000154 ± 3.3e-05 | 0.000178 ± 5.1e-05 | – |
| U30A G32A G35C U45C | < 1e-05 | < 1e-05 | – |
| C10G G38U U49G C58G A64C U65A C67U C68U | 0.000308 ± 8.3e-05 | – | – |
| C11A A12C A53G U56G | 6.8e-05 ± 1.5e-05 | 0.000323 ± 6.9e-05 | – |
| C11G G13U G29A G66A | < 1e-05 | – | – |
| C16U A48C G62U | < 1e-05 | < 1e-05 | – |
| G40C A48G U56G G59U A64C C70G | < 1e-05 | – | – |
| A6G C8U U31G C71G | < 1e-05 | – | – |
| A36C G40C | < 1e-05 | < 1e-05 | < 1e-05 |
| C10A A48C G59C | < 1e-05 | – | – |
| C11A G13C U57G | < 1e-05 | – | – |
| C34G G37U A39G C58U C61G | 0.00305 ± 0.001 | – | – |
| C50G G62A C68G | 0.000159 ± 4.6e-05 | – | 0.000111 ± 2.9e-05 |

| Variant | self-cleavage kobs at 640 uM GlcN6P (glucosamine-6-phosphate [1]) [s⁻¹] | self-cleavage kobs at 2500 uM GlcN6P (glucosamine-6-phosphate [2]) [s⁻¹] | self-cleavage kobs at 10000 uM GlcN6P (glucosamine-6-phosphate [3]) [s⁻¹] |
| --- | --- | --- | --- |
| C11G A33U U54A U65G | < 1e-05 | – | – |
| C8G A64C C68G | < 1e-05 | < 1e-05 | – |
| A6G G63U A64C C67U U69G | < 1e-05 | < 1e-05 | – |
| A36U G43U | < 1e-05 | < 1e-05 | – |
| G7U C71A | < 1e-05 | – | < 1e-05 |
| A14G A15C U31C G40C U54A | 4.07e-05 ± 1e-05 | 0.000142 ± 3.5e-05 | 5.3e-05 ± 1.6e-05 |
| A14C G40C G41C G44C | < 1e-05 | < 1e-05 | – |
| A15C C58G C70A | 5.23e-05 ± 1.5e-05 | 4e-05 ± 2e-05 | – |
| A6G G9A G29A G32U G40U | < 1e-05 | – | – |
| G7A C8U U31C A52C | < 1e-05 | < 1e-05 | – |
| G29C C58U U69A | 5.92e-05 ± 2.8e-05 | – | – |
| C11A A12U C16U C70U | 0.00025 ± 7.2e-05 | 0.000524 ± 0.00013 | – |
| G35U C67G C68G | 6.14e-05 ± 2.2e-05 | – | – |
| G7C A12C G32A C50A G60U | < 1e-05 | – | – |
| U47C U69G | 4.72e-05 ± 1.9e-05 | 0.000104 ± 2.3e-05 | 6.08e-05 ± 1.5e-05 |
| G9A C11U U54A G59A A64G | < 1e-05 | < 1e-05 | – |
